Laboratory results from publication PMC8659110, “Preliminary Study of New Gallium-68 Radiolabeled Peptide Targeting NRP-1 to Detect Brain Metastases by Positron Emission Tomography” (Molecules, 2021).
Primed or numbered codes have the meaning given here. Where no end group is shown, it is not given here. Cy5 = Cy5 fluorophore (fluorescent dye); NODAGA′ = chelator

Key:
[1] = molecular target: T1, recombinant rat NRP-1 protein (rat, UniProt Q9QWJ9 22-855); assay: SPR; Biacore T200, 25 °C; rat NRP-1 covalently immobilised on CM5 chip (10,000 RU), IgG1 reference surface (4000 RU); PBS with 0.05% P20, pH 7.4; compounds 0.60-10 µM (scrambled peptides 10 and 30 µM, VEGF 12.5-400 nM) at 30 µL/min for 300 s; equilibrium response fitted to a 1:1 model; mean of two experiments; settings: both partners purified
T1 construct: neuropilin-1 (NRP-1), rat, recombinant; printed MW 119 kDa; also called neuropilin-1; source: bought: Bio-techne
T1 sequence (looked up): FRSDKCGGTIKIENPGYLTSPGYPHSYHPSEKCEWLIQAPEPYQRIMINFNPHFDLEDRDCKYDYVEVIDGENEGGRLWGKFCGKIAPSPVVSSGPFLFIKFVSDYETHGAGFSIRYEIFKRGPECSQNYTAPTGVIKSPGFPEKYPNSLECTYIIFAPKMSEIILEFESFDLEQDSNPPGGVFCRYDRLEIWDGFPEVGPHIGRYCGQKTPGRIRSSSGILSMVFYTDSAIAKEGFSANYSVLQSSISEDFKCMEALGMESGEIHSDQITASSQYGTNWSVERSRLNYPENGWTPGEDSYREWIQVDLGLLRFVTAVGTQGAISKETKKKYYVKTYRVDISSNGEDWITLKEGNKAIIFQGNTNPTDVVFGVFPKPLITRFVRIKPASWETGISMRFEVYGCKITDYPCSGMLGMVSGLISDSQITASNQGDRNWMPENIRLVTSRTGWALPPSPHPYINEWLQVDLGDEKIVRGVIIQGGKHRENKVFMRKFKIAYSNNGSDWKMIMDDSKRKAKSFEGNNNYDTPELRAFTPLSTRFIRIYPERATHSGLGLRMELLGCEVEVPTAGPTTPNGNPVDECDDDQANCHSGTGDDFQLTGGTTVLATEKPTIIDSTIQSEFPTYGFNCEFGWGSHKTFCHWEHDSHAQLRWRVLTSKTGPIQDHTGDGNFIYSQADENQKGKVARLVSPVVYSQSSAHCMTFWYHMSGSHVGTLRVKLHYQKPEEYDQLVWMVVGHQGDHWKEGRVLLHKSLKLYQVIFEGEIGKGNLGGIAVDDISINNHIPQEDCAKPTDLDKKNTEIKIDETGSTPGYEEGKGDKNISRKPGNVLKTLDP

[2] = molecular target: T2, NRP-1 recombinant chimeric protein ( (recombinant human/rat NRP-1 …, UniProt O14786 22-856)); assay: ELISA; competitive binding assay: NRP-1 recombinant chimeric protein coated on Maxisorp microplates; biotinylated VEGF-165 with heparin, with or without increasing concentrations of compounds; 2 h at room temperature; bound b-VEGF-165 detected with streptavidin-HRP, OD 450 nm; IC50 by one-site fit log-IC50; settings: both partners purified
T2 construct: 'Chimeric' probably means the supplier's Fc chimera; also called recombinant NRP-1 protein; the receptor; source: bought: Bio-techne
T2 sequence (looked up): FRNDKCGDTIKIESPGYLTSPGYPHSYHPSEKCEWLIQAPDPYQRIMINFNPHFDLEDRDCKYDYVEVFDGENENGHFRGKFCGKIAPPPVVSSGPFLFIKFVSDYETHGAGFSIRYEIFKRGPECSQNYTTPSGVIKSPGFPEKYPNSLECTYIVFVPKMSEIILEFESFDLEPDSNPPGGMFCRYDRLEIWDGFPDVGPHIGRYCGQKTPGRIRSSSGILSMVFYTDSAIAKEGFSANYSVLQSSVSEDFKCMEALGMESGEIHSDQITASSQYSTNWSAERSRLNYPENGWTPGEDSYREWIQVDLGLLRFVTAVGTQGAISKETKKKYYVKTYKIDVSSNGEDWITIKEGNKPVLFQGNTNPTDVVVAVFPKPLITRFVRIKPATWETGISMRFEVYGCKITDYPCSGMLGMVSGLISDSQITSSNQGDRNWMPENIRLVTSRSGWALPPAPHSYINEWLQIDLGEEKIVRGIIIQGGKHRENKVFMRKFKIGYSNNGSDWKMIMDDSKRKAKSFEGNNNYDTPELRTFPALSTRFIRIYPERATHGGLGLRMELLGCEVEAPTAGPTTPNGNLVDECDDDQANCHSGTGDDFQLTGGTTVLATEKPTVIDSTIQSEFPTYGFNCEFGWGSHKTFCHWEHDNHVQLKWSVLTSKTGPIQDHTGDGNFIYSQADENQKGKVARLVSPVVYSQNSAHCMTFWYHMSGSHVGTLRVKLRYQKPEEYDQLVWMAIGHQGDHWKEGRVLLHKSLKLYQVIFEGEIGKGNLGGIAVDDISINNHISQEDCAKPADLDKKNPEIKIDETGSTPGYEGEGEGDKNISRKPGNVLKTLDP

B1: ^natGa-NODAGA-K(Cy5)DKPPR (peptide)
peptide: {NODAGA′}-K(Cy5)DKPPR
modifications: also: NODAGA complexed with natGa
notes: KDKPPR with ^natGa-NODAGA on the N-terminal amine and Cy5 on the side chain of the first lysine; source: synthetic peptide (Fmoc/tBu/Dde solid phase; complexed with ^natGa(NO3)3, purified by preparative HPLC)
Question: Which Kd [1] does the source give for B1 here?
Answer: 4 µM

B2: KDKPPR peptide (peptide)
peptide: KDKPPR
notes: also called KDKPPR free peptide; KDKPPR alone; source: synthetic peptide (Fmoc/tBu solid phase on Fmoc-Arg(Pbf)-Wang resin, precipitated in cold diethyl ether)
Question: B2 was tested. Which Kd [1] did it give?
Answer: 7 µM

B3: KRPKPD scramble peptide (peptide)
chain: H-KRPKPD-OH
Question: With B3 as the binder, how does the IC50 [2] read?
Answer: 300 µM

B4: K(Cy5)DKPPR (peptide)
peptide: K(Cy5)DKPPR
notes: KDKPPR with Cy5 on the side chain of the first lysine; source: synthetic peptide (solid phase with Fmoc-Lys(Cy5)-OH, purified by preparative HPLC)
Question: For B4, which Kd [1] is on record?
Answer: 5 µM

B5: ^natGa-NODAGA-K(Cy5)RPKPD (peptide)
peptide: {NODAGA′}-K(Cy5)RPKPD
modifications: also: NODAGA complexed with natGa
notes: scramble peptide KRPKPD with ^natGa-NODAGA on the N-terminal amine and Cy5 on the side chain of the first lysine; also called ^natGa-NODAGA-K(Cy5)scramble; source: synthetic peptide (Fmoc/tBu/Dde solid phase; complexed with ^natGa, purified by preparative HPLC)
Question: How did the IC50 [2] turn out when B5 was run?
Answer: 177 µM
